Data on nine molecules can be found in US20130225488A1 (CADILA HEALTHCARE, published 2013).

Experiment [1] deals with Human GLP-1 receptor (human, UniProt P43220 24-463). Briefly: cell-based or functional assay.
The target of experiment [2] is Human glucagon receptor (human, UniProt P47871 26-477). Briefly: cell-based or functional assay.

Where no end group is shown, it is not given here. [ ]: non-standard residue; d: D form. Aib = CC(C)(N)C(=O)O

Human GLP-1 receptor, sequence (P43220 24-463): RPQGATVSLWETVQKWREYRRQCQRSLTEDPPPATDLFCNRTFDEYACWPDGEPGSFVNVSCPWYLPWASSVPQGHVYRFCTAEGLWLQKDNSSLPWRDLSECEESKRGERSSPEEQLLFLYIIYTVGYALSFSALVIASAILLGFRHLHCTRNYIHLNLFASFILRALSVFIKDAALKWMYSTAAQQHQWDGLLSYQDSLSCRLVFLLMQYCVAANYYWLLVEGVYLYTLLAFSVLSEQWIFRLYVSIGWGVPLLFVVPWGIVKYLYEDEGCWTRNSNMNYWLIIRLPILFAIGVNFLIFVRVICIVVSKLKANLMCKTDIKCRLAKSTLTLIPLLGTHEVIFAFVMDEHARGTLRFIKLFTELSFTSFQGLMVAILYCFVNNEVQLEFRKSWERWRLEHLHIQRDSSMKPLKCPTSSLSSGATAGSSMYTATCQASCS

On to H[Aib]QGTFTSD[Bip(OMe)][Bip(Pyr)] [Seq. ID. No. 14: H-Aib-QGTFTSD-Bip(OMe)-Bip(Pyr)], for which, in experiment [1], the “cAMP release, % activity with respect to control; test compound 1 nM” value (from here on “cAMP release, % activity … test compound 1 nM”) was 62%; the “cAMP release, % activity with respect to control; test compound 10 nM” value (“cAMP release, % activity … test compound 10 nM” below) stood at 94%; the “cAMP release, % activity with respect to control; test compound 100 nM” value (“cAMP release, % activity … test compound 100 nM” below) stood at 99%; the “cAMP release, % activity with respect to control; test compound 1 µM” value (“cAMP release, % activity … test compound 1 µM” for short) was determined as 99%. The “cAMP release, % activity with respect to control; test compound 10 µM” value (“cAMP release, % activity … test compound 10 µM” below) in experiment [1] turned out to be 99%. Moreover, in experiment [2], the “cAMP production with saturated glucagon peptide; test compound 1 nM” value (“cAMP production … test compound 1 nM” below) came out at 9 pmol/ml/µg prt, the “cAMP production with saturated glucagon peptide; test compound 10 nM” value (from here on “cAMP production … test compound 10 nM”) was 6 pmol/ml/µg prt, the “cAMP production with saturated glucagon peptide; test compound 100 nM” value (“cAMP production … test compound 100 nM” below) was determined as 5 pmol/ml/µg prt and the “cAMP production with saturated glucagon peptide; test compound 10 µM” value (“cAMP production … test compound 10 µM” below) is 0 pmol/ml/µg prt. Moreover, the “cAMP production with saturated glucagon peptide; test compound '1 nM'” value (shortened to “cAMP production … test compound '1 nM'”) in experiment [2] was determined as 3 pmol/ml/µg prt.
Consider HAQGTFTSD[Bip(OMe)][Bip(2Me)] (not fully specified (C-terminus); printed as HAQGTFTSD-Bip(OMe)-Bip(2Me)) [Seq. ID. No. 9: HAQGTFTSD-Bip(OMe)-Bip(2Me)], for which, in experiment [1], the “cAMP release, % activity … test compound 1 nM” value came to 38%; the “cAMP release, % activity … test compound 10 nM” value was found to be 77%; the “cAMP release, % activity … test compound 100 nM” value was 85%; the “cAMP release, % activity … test compound 1 µM” value stood at 94%. Also, the “cAMP release, % activity … test compound 10 µM” value in experiment [1] is 97%. In experiment [2], the “cAMP production … test compound 1 nM” value was determined as 18 pmol/ml/µg prt, the “cAMP production … test compound 10 nM” value was found to be 16 pmol/ml/µg prt, the “cAMP production … test compound 100 nM” value worked out at 12 pmol/ml/µg prt and the “cAMP production … test compound 10 µM” value came to 6 pmol/ml/µg prt. The “cAMP production … test compound '1 nM'” value in experiment [2] was 8 pmol/ml/µg prt.
As to HAQGTFTSD[Bip(OMe)][Bip(2F)] [Seq. ID. No. 11: HAQGTFTSD-Bip(OMe)-Bip(2F)], in experiment [1], the “cAMP release, % activity … test compound 1 nM” value came to 51%; the “cAMP release, % activity … test compound 10 nM” value amounted to 86%; the “cAMP release, % activity … test compound 100 nM” value turned out to be 91%; the “cAMP release, % activity … test compound 1 µM” value stood at 99%. Also, the “cAMP release, % activity … test compound 10 µM” value in experiment [1] amounted to 99%. For the same molecule, in experiment [2], the “cAMP production … test compound 1 nM” value was found to be 10 pmol/ml/µg prt, the “cAMP production … test compound 10 nM” value came out at 8 pmol/ml/µg prt, the “cAMP production … test compound 100 nM” value came out at 6 pmol/ml/µg prt and the “cAMP production … test compound 10 µM” value came to 0 pmol/ml/µg prt. In experiment [2], the “cAMP production … test compound '1 nM'” value stood at 2 pmol/ml/µg prt.
In the case of H[Aib]QGTFTSD[Bip(OMe)][Bip(2Me)] [Seq. ID. No. 13: H-Aib-QGTFTSD-Bip(OMe)-Bip(2Me)], in experiment [1], the “cAMP release, % activity … test compound 1 nM” value was 60%; the “cAMP release, % activity … test compound 10 nM” value is 92%; the “cAMP release, % activity … test compound 100 nM” value came to 98%; the “cAMP release, % activity … test compound 1 µM” value is 99%. Moreover, the “cAMP release, % activity … test compound 10 µM” value in experiment [1] came out at 99%. In experiment [2], the “cAMP production … test compound 1 nM” value amounted to 10 pmol/ml/µg prt, the “cAMP production … test compound 10 nM” value turned out to be 8 pmol/ml/µg prt, the “cAMP production … test compound 100 nM” value worked out at 6 pmol/ml/µg prt and the “cAMP production … test compound 10 µM” value came to 1 pmol/ml/µg prt. In addition, the “cAMP production … test compound '1 nM'” value in experiment [2] was 4 pmol/ml/µg prt.
Consider H[Aib]QGTFTSD[Bip(OMe)][Bip(2CF3)] [Seq. ID. No. 16: H-Aib-QGTFTSD-Bip(OMe)-Bip(2CF3)], for which, in experiment [1], the “cAMP release, % activity … test compound 1 nM” value is 69%; the “cAMP release, % activity … test compound 10 nM” value worked out at 98%; the “cAMP release, % activity … test compound 100 nM” value was 99%; the “cAMP release, % activity … test compound 1 µM” value was 99%. The “cAMP release, % activity … test compound 10 µM” value in experiment [1] turned out to be 99%. In experiment [2], the “cAMP production … test compound 1 nM” value came to 4 pmol/ml/µg prt, the “cAMP production … test compound 10 nM” value came to 2 pmol/ml/µg prt, the “cAMP production … test compound 100 nM” value was 0 pmol/ml/µg prt and the “cAMP production … test compound 10 µM” value is 0 pmol/ml/µg prt. For the same molecule, in experiment [2], the “cAMP production … test compound '1 nM'” value came out at 0 pmol/ml/µg prt.
As to HXQGTXTSDXX (not fully specified; ACP at 2; α-Me-2F-Phe at 6; Bip(OMe) at 10; Bip(2F) at 11) [Seq. ID. No. 35: H-(ACP)-QGT-(α-Me-2F-Phe)-TSD-Bip(OMe)-Bip(2F)], in experiment [1], the “cAMP release, % activity … test compound 1 nM” value is 99%; the “cAMP release, % activity … test compound 10 nM” value was determined as 99%; the “cAMP release, % activity … test compound 100 nM” value is 99%; the “cAMP release, % activity … test compound 1 µM” value amounted to 99%. Moreover, the “cAMP release, % activity … test compound 10 µM” value in experiment [1] was 99%. For the same molecule, in experiment [2], the “cAMP production … test compound 1 nM” value was found to be 5 pmol/ml/µg prt, the “cAMP production … test compound 10 nM” value came to 3 pmol/ml/µg prt, the “cAMP production … test compound 100 nM” value was found to be 1 pmol/ml/µg prt and the “cAMP production … test compound 10 µM” value was found to be 0 pmol/ml/µg prt. The “cAMP production … test compound '1 nM'” value in experiment [2] stood at 0 pmol/ml/µg prt.
Regarding HSQGTFTSD[Bip(OMe)][Bip(2CF3)] (not fully specified (C-terminus); printed as HSQGTFTSD-Bip(OMe)-Bip(2CF3)) [Seq. ID. No. 8: HSQGTFTSD-Bip(OMe)-Bip(2CF3)], in experiment [1], the “cAMP release, % activity … test compound 1 nM” value came to 40%; the “cAMP release, % activity … test compound 10 nM” value came to 81%; the “cAMP release, % activity … test compound 100 nM” value came out at 87%; the “cAMP release, % activity … test compound 1 µM” value was 95%. In addition, the “cAMP release, % activity … test compound 10 µM” value in experiment [1] came out at 98%. Also, in experiment [2], the “cAMP production … test compound 1 nM” value was found to be 4 pmol/ml/µg prt, the “cAMP production … test compound 10 nM” value was 2 pmol/ml/µg prt, the “cAMP production … test compound 100 nM” value was 0 pmol/ml/µg prt and the “cAMP production … test compound 10 µM” value was found to be 0 pmol/ml/µg prt. The “cAMP production … test compound '1 nM'” value in experiment [2] was 0 pmol/ml/µg prt.
For the molecule H[Aib]QGTFTSD[Bip(OMe)][Bip(2F)] [Seq. ID. No. 15: H-Aib-QGTFTSD-Bip(OMe)-Bip(2F)], in experiment [1], the “cAMP release, % activity … test compound 1 nM” value turned out to be 66%; the “cAMP release, % activity … test compound 10 nM” value stood at 97%; the “cAMP release, % activity … test compound 100 nM” value was 99%; the “cAMP release, % activity … test compound 1 µM” value is 99%. Besides, the “cAMP release, % activity … test compound 10 µM” value in experiment [1] is 99%. In experiment [2], the “cAMP production … test compound 1 nM” value is 6 pmol/ml/µg prt, the “cAMP production … test compound 10 nM” value turned out to be 5 pmol/ml/µg prt, the “cAMP production … test compound 100 nM” value amounted to 2 pmol/ml/µg prt and the “cAMP production … test compound 10 µM” value amounted to 0 pmol/ml/µg prt. Also, in experiment [2], the “cAMP production … test compound '1 nM'” value was determined as 0 pmol/ml/µg prt.
Regarding HSQGTFTSD[Bip(OMe)][Bip(2F)] (not fully specified (C-terminus); printed as HSQGTFTSD-Bip(OMe)-Bip(2F)) [Seq. ID. No. 7: HSQGTFTSD-Bip(OMe)-Bip(2F)], in experiment [1], the “cAMP release, % activity … test compound 1 nM” value was 45%; the “cAMP release, % activity … test compound 10 nM” value is 84%; the “cAMP release, % activity … test compound 100 nM” value amounted to 90%; the “cAMP release, % activity … test compound 1 µM” value was determined as 99%. The “cAMP release, % activity … test compound 10 µM” value in experiment [1] was 99%. In addition, in experiment [2], the “cAMP production … test compound 1 nM” value was found to be 6 pmol/ml/µg prt, the “cAMP production … test compound 10 nM” value came out at 5 pmol/ml/µg prt, the “cAMP production … test compound 100 nM” value was 2 pmol/ml/µg prt and the “cAMP production … test compound 10 µM” value worked out at 0 pmol/ml/µg prt. Also, the “cAMP production … test compound '1 nM'” value in experiment [2] was 0 pmol/ml/µg prt.
